The Kd is the constant that tells how readily two partners part at equilibrium. In general, stoichiometry N refers to the number of molecules, sites or subunits per partner or assembly.

The text below walks through data of doi:10.1101/196097.

Assay [1] addresses Fluorescein (FAM)-labeled calmodulin T34C (UniProt P0DP23). The experiment in a line: fluorescence polarisation.
Assay [2] has as its target Calcium-independent phospholipase A2β, short variant (SH-iPLA2β), wild type (Chinese hamster (cloned from CHO cells)). The experiment in a line: AUC.
Assay [3] concerns the target FAM-labeled synthetic peptide corresponding to the IQ motif of iPLA2β. The experiment in a line: fluorescence polarisation. For orientation: Polarisation of emitted light reports the rotation of a fluorescent probe.
In assay [4] the target is FAM-labeled synthetic peptide corresponding to the 1-9-14 motif of iPLA2β. The assay can be described thus: fluorescence polarisation.

“Calcium-independent phospholipase A2β, short variant (SH-iPLA2β), wild type (from UniProt A0A3L7I2I8 1-807) (enzyme)” returned a Kd in assay [1] of 112 nM. The stoichiometry N in assay [2] is 2. On to “iPLA2β W695E mutant (from UniProt A0A3L7I2I8 1-807) (enzyme)”, for which the Kd in assay [1] is over 1400 nM.

With “Calmodulin (from UniProt P0DP23 1-149) (natural protein)”, the values for the Kd in assay [3] and in assay [4] were 5900 nM and 2500 nM, respectively.
